Data: the DeepSol protein solubility set

assay: soluble on expression in E. coli; label from the status in PepcDB or PDB records

Sequence | soluble on expression in E. coli
MDRRIAMSLQVLGAGLGRTGTLSLKFALEHLGFGPCYHATEVAANMRTALPLWNAAERGAADWSAIFAGYRSSTDHPGCYYWRQLIEVYPQAKVVLTVRDPDSWFESVTQTILMPGRKSTFVGPEGETFSTFLKQQMGGRSQDRAFMVDYFNRWNQAVIDAVPSDRLLVFSSRQGWAPLCGFLSVPVPHKPYPHLHARPRLRWFTRGLRLPDDVAARERHVREYLQYLREDLFGLEHHHHHH | soluble
MDSDPLGVFPNSPKYHPYYSQTTEFGGVIDLGLSLRTIQHEIYHSSGQIMTCGKGYCSNEGYRRKWGYVKVTMDGLVVGRKVCVLDHGSYSTLAHQLEDMFGMQSVSGLRLFQMESEFCLVYRDEEGLWRNAGDVPWNEFIESVERLRITRRNDAVLPF | not soluble
MDSEAVSSDSHVAAAIATRRRSNSVSDDYSVQRTNDDATQCKYFATQKGYWKDEFISRFANSSSNVSEARRFPEISMGYWARTAAIEKYVRDFLNEFDGNAQVVSLGCGFDTLFWRLVSSGAKLVKYVEVDFSSVTSKKIRHILKPIGPNSVDLKKSFESDAVVSHHADLHAGNYHLIGADLRQANELDQKLATCQLSHDIPTIFIAECVLVYMSADSSTALLKQIVSQFKQPAFVNYEQFRTSDAFTKVMEQNLGDRGIQLHGLEMCESAEKQEERFRNAGFKEVKVMDMNQIFNNFLDQKEVSRIREIEMLDEMELLQQLFAHYCVVSARI | not soluble
MDSGLKALEAVLAIARKGSFRAAALDLGVSTTALSHTVARLEAGLGVRLFHRTTRSVALTEAGREFVARIAPALTEIRAALETVRSQRATPSGMLRINASVQAGRAVAPLVLAFLRRYPEMRVDLVTEGRLLDIVAEGFDMGIRPADLVPRDMIALPLGLPVRHAVVASPDWLVRHPEPRSPADLDPDACLRVRLPNGALLRWPFQKDGVPLPFEASGRLTVDEAAIARAAVLDGAGIGYFIEADVAEDIAAGRMIRLLEDWTPNRPGFSLYYSGRRNPSAGFTAFLAMAREREAA | not soluble
MDSHVGEVDIFQQCKYIHEVELVNMKLQMRILETHIETKDRLLRNLEDIIDEQESRIANMEDFIQGRATSYTNRSNMLKGISVLSLDFGNLSEENLRLKNALSQMQKVARVNELLETDEDYESDMTSNEDRFALSRDSSCSVPRSVSPQPTGDVIKPYPQMVQSMREEGHWKKLQRCAEELKTEKDELKRLALDTKDAFNVCMAEMRMMLTSKTTDFFRVLIERYKAEMEKRKQLHNQLVELNGNIRVFYRIRPQLASETDNQKPVVVIDEMDNGVVHVSNTTGTRKTSAGADKVIPTDFSQDQIFNEVSPIITSCIDGYNVCIFAYGHTGSGKTYTMDGPVTMPGINQRAIMQLFETAKERTGDIKYDIKVAMMEIYNEKIRDLLNTSNTNLAIRQTEEGRSSIPGLEEVSVNSAEEVTETLARGRKNKAVAATEANIESSRSHVIVRVLVSATNLITKATTVGRLNLVDLAGSERVSQTNATGQLLKEAQAINKSLSELGNVVLALRQNQKHIPFRNCQLTRILEDSLNGDSKTLVIVHLSPDAKSLNESISSVNFAEKIGQVFTKSGTMKREPTRRSMTGISSGQRREIPASPRK | soluble
MDSLKCQVDNTVASHNVTIDKSSQDDNHIDNRRYYINIGNTKDSEEVARLQKLILTQNEAESKRTMELLALLNLKNNPEEQKKASAVGPAVDVAQNLRHLSASAGGTRRLRSCHGTYLRAYDKGLKVDMKTGAPGTWENWWVEDRKGKVVFKAIHSPGIFLSAQGNNQLTLDYHVNASEFWTPKKNDNGSWSFQSANGTWLSAHKDGRACLQPHRQAWEEFWLEWW | not soluble
MDTVNDSFSPGSSRPSPATLSREDCWSEEATFTLIQAWGNRYVDLSRGNLRQKHWQEVANAVNDRHYNTGRNVSAAKSQPYRTDVQCKNRIDTLKKKYKVEKARVSESNPGAYISPWPFFSALDDLLRESFPTSSNPDSTDNIPHQRLSLPMSINPVPVAPRSAIPRRPATSPAIIPHAGDDLLGFRGNLNAFAAAAAAAACPASEDDSEGSRSRSSGRSGSNKKRERKIEKKQGYKEVADAIERLGQIYERVEEKKRKEMVELEKQRMRFAKELECHRMQLFTEMQVRLHKLRRTSGSKGPTSSASAGET | soluble
MDVQDIIGIALNLATAGSLAAKVLPGCGGKKKGKSVEGESTSSSKGNGAKTPEGKEGSEARTPSAAGSAAPTAPAEGAAPAAGAPAAVAPKPPMAATHDPNYQTLAGLDNNVFGKKDGAAPAAGGGGPAAPADQNAKAATHDPNYQTLAGLNNNVFDKKDGVGAPAAAPVAAGGDKKPIQPNDKNKKAATMDPNYQTLAAVGGDVFGADKKAGGGGGDKKPIQPNNKGQKAATMDPNYQTLAAVGGDVFGADKKKK | soluble
MDVQLPYNVKIEAFEGPLDLLLHLINRYEIDIYDIPVAQITEQYMAYIHAMQELELDIASEYLVMAATLLAIKSKMLLPPSNEEAVDGDIEWGDDGDPREELTQRLLEYKKFKEAARELKRREEERALLFTKPPSDLSAYADEKKAAPLDVNVYDMLGALSKLLRRKKLQKPMRAKISRQDISVEQRMAEILHELKQANGRKNFYELFPSYDRSYIVVTFLAILELMKQDEIIVEQERNFSDLFLAVKPAG | not soluble
MDVTRQIELAHRYMKDFHKSDYSGHDVAHVERVTSLAQTISKCEQQGEYLIITLSALLHDVIDDKLTNKANALDRLKTFLKNIRVSSDQQQKIIYIIQHLSYRNGQNNHVDLPIEGQIVRDADRLDAIGAIGIARAFQFSGHFNEPMWTESPHSDIPNIETITNLEPSAIRHFYDKLLKLKDLMHTETGRKLARERHAFMEQFLNQFYKEWHILEHHHHHH | soluble
MDWRWWKIAYEELTEKQQRFVDKYITTFNATESAKQAGYSEKSAYSQGQRLLKNVEIQKAMKERFLEAKDTKGDRIQDVAETLEQDTSIARGEIQISEFKETDMLTGQVVIHTKREYTPSHEEQGRARDRIYKVNGAYSEKRELEHSGTVVFANEDNIPD | not soluble
MDYRVLLYYKYVTIDDPETFAAEHLKFCKEHHLKGRILVSTEGINGTLSGTKEDTDKYIEHMHADNRFADLTFKIDEAESHAFKKMHVRPRREIVALDLEEDINPREITGKYYSPKEFKAALEDENTVILDARNDYEYDLGHFRGAIRPDITRFRDLPEWVRNNKEQLDGKNIVTYCTGGIRCEKFSGWLVKEGFENVGQLHGGIATYGKDPETKGQYWDGKMYVFDERISVDVNQIDKTVIGKEHFDGTPCERYINCANPECNKQILVSEENEEKYLGACSYDCAKHERNRYVARHHISNEEWQRRLNNFKDVPEHTHALEHHHHHH | soluble
MDYSEIMVRHGELSTKGKNRMRFINKLKNNIQDVLAPFPAITVRSDRDRTHVSLNGTDYQPIVEALKLVFGVQALSPVYKLEKSVPLLVTAVQDIMTSLYRDGLTFKIATKRSDHAFELDSRELNSLLGGAVFEVLPNIQAQMKHPDVTLKVEIRDEAAYISYEEIKGAGGLPVGTSGKGMLMLSGGIDSPVAGYLALKRGLDIEVVHFASPPYTSPGALAKAQDLTRRLTRFGGNIQFIEVPFTEIQEEIKNKAPEAYLMTLTRRFMMRITDAIREQRKGLVIVNGESLGQVASQTLESMQAINAVTSTPIIRPVVTMDKLEIIEMAQAIDTFDISIQPFEDCCTIFAPDRPKTNPKLGNAEKYEECFDIDGLVQRAVSGIVVTEITPEIVNDEVENLIDALL | not soluble
MDYTEESAQIPEMAEKLGIPTSRKETKTLELPVSIDFRNWCSPIEDQMDLGSCTAHAGVGVVEYFERRAFGKHIDGSRFFVYKTTRNLMGVKGDTGAWLRNTMGALALCGVPPEKYFPYTSRKTPGPDGEPTFDDEPSSFVYSLADNFEALNYFCHDPQGMNLPPEDVILSVKKYLAAGIPSMFGFYGFPSFKDTDVKGGIPFPGPDERSIWGHAVVAVGYDDNMKIRNTLSNKETTGAFLIRNSWGTAWGDKGYGWLPYEYALNKFALDFWSLISMKWVETGNFGLELESSRSRARETLSRDMPLPHALEHHHHHH | not soluble
MDYVDYSNPDNPVITDEGERLAKIHSEADLLVAQCLKRGIWDNLDPAELAGVVSMCTFENRRETGGEAQAVTEAMADSMNSVERIWGELVEDERRHRLPITRQPEAGFATAIHQWASGAPLGYCMAAAAENGAELTPGDFVRWCRQVIDLLEQVAKTAYFDETTRNARQAIDAIRRGVVAIGSLEHHHHHH | soluble
MEAKAIARYVRISPRKVRLVVDLIRGKSLEEARNILRYTNKRGAYFVAKVLESAAANAVNNHDMLEDRLYVKAAYVDEGPALKRVLPRARGRADIIKKRTSHITVILGEKHGK | soluble
MEANMPKRKEPGRSLRIKVISMGNAEVGKSCIIKRYCEKRFVSKYLATIGIDYGVTKVHVRDREIKVNIFDMAGHPFFYEVRNEFYKDTQGVILVYDVGQKDSFDALDAWLAEMKQELGPHGNMENIIFVVCANKIDCTKHRCVDESEGRLWAESKGFLYFETSAQTGEGINEMFQTFYISIVDLCENGGKRPTTNSSASFTKEQADAIRRIRNSKDSWDMLGVKPGASRDEVNKAYRKLAVLLHPDKCVAPGSEDAFKAVVNARTALLKNIK | soluble
MECLKAEFFSPIALFKTPFSIKGIETYPLPPYSTVIGLLYTASGKKWKGERFNISVQGDYEAIFRDYVRFRKYNKKDKKLETLPLEVPLFYNFRLTVHILGDENLLKEFEKALKFPYVFPYLSGGEYPVKITKVKMVACRKEYFDTFNIPKNAYIPENIFTEEFRVSLEGHGVYYRVPSFLISQKPRQHEWVGVYYVQKGTKVSEMELLVDEEGEPVWV | soluble
MEEKKTESATKNVKKVNLLDHIAIKHLLDESVSDIVTSRGYKEDGSFTSTGLVVSSKLPRFSDQYTLTIDSADPQSISAGKSVQFTKSVTQWLTKDGVLVEGLFWKDVEALVKEYTEAGEPKKKR | not soluble
MEEKVYLDKLAKRDIKPTAIRLLILKSMMEAGRAVSQLDLETLLDTVDKSTISRTITLFLSHHLIHSIDDGSGSWKYAVCDDSCNCVLKDLHSHFYCEKCHRTFCLEKIHIPVIDLPKGFTLHSVNYVVKGVCAECSKV | not soluble
MEEKWCNYLLNEGRDWKTMNKTILKTCIISAVLGGVLLTEKNGEVKAEEITPQTNHTGVFKDVPKGHWAYEAIQQLTDEKIVFGYDDGRFGFGDNVTREQVAALLYRYFNLAEEKNYENPYGDVSEESTSYIKEILSLTEMGVFKGDEHGNFRPKASLTRAEMAQVLTNAFHLKAKSNHTFNDVSTNSWASNAISAVQTNNIAKGVGGGNFAPNMDVTREQYAQFLYNAIQETEKTQETKGQLLASILGETNWQGTKVYDKDHNDVTKENQNFIGLAKYDAKTARYEFFNASTGESRNDSGTFFITNDGKKRVLISETQNYQAVVELTQLDKEKFTYKRMGKDAKRNDVEVFVEHIPYQEKELSFTRPDKNLESSTGKIVTDVDGDKILSSTLWNGTVVLDEQGNNVTKYNSNLISLAKYDKNTNKYEFFNVNTGESRGDYGFFDVVHDNKIRAHVSLGNNKYGAVLELTELNKEKFTYTRMGKDANGKDIKIFVEHEPNTGDLKPNFTK | not soluble
MEELQDDYEDMMEENLEQEEYEDPDIPESQMEEPAAHDTEATATDYHTTSHPGTHKVYVELQELVMDEKNQELRWMEAARWVQLEENLGENGAWGRPHLSHLTFWSLLELRRVFTKGTVLLDLQETSLAGVANQLLDRFIFEDQIRPQDREELLRALLLKHSHAGELEALGGVKPAVLTRSGDPSQPLLPQHSSLETQLFCEQGDGGTEGHSPSGILEKIPPDSEATLVLVGRADFLEQPVLGFVRLQEAAELEAVELPVPIRFLFVLLGPEAPHIDYTQLGRAAATLMSERVFRIDAYMAQSRGELLHSLEGFLDCSLVLPPTDAPSEQALLSLVPVQRELLRRRYQSSPAKPDSSFYKGLDLNGGPDDPLQQTGQLF | soluble
